Here are results for one substance from paper PMC3974974.

The term Kd denotes the concentration at which binding is half-saturated. Higher therefore signals a looser complex.

Experiment in all cases: SPR; SIRPα variants immobilized via a biotin tag on a streptavidin-coated CM5 chip, BIAcore 3000, 37 °C; dilutions of soluble monomeric CD47 (0.05 to 25.7 μM) injected; KD from equilibrium binding; purification of the variants from 293T not told
Experiment [1] has as its target SIRPα variant v1, three Ig superfamily domains linked to rat CD4d3 and -4 and a biotinylation sequence (human).
The target in experiment [2] is SIRPα variant v10, three Ig superfamily domains linked to rat CD4d3 and -4 and a biotinylation sequence (human).
The target of experiment [3] is SIRPα variant v2, three Ig superfamily domains linked to rat CD4d3 and -4 and a biotinylation sequence (human).
Experiment [4] concerns the target SIRPα variant v5, three Ig superfamily domains linked to rat CD4d3 and -4 and a biotinylation sequence (human).
The target in experiment [5] is SIRPα variant v7, three Ig superfamily domains linked to rat CD4d3 and -4 and a biotinylation sequence (human).
SIRPα variant v7, three Ig superfamily domains linked to rat CD4d3 and -4 and a biotinylation sequence (human), sequence (P78324 31-504, stated change not applied): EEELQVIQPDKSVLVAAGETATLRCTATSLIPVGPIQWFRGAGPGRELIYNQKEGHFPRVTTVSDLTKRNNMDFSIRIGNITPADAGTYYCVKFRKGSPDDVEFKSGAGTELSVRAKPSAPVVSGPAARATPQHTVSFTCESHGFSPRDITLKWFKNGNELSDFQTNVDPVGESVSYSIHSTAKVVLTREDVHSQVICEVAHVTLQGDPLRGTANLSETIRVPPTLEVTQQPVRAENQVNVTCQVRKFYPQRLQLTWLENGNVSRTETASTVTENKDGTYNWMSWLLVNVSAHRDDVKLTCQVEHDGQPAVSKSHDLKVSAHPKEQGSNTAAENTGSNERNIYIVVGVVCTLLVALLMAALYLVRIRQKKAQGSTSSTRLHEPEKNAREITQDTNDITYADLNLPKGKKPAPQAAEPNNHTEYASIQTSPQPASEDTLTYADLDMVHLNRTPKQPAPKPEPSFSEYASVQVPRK

SIRPα variant v5, three Ig superfamily domains linked to rat CD4d3 and -4 and a biotinylation sequence (human), sequence (P78324 31-504, stated change not applied): as above

With “Recombinant CD47 Ig superfamily domain (from UniProt Q08722 19-136) (domain or fragment)”, the Kd came to 740 nM in experiment [1]; 670 nM in experiment [2]; 640 nM in experiment [3]; 780 nM in experiment [4]; 650 nM in experiment [5].
